Measured values: patent publication US20210252150A1
Where two headings read alike, the source gives them in different places.

Legend:
[1] = target: HA of A/Texas/36/1991 (H1N1) (influenza A virus (H1N1)); assay: ELISA, recombinant HA
[2] = target: HA of A/Solomon Islands/03/2006 (H1N1) (influenza A virus (H1N1)); assay: ELISA, recombinant HA
[3] = target: HA of A/black-headed gull/Sweden/4/1999 (H16) (influenza A virus (H16)); assay: ELISA, recombinant HA
[4] = target: HA of A/shearwater/Western Australia/2576/1979 (H15N9) (influenza A virus (H15N9)); assay: ELISA, recombinant HA
[5] = target: HA of A/Taiwan/2/2013 (H6) (Influenza A virus A/Taiwan/2/2013 (H6)); assay: ELISA, recombinant HA
[6] = target: HA of A/Vietnam/1203/2004 (H5N1) (influenza A virus (H5N1)); assay: ELISA, recombinant HA
[7] = target: HA of A/Indonesia/5/2005 (H5N1) (influenza A virus (H5N1)); assay: ELISA, recombinant HA
[8] = target: HA of A/Fort Monthouth/1947 (H1N1) (influenza A virus (H1N1)); assay: ELISA, recombinant HA
[9] = target: HA of A/Texas/50/2012 (H3N2) (influenza A virus (H3N2)); assay: ELISA, recombinant HA
[10] = target: HA of A/Netherlands/219/2003 (H7N7) (influenza A virus (H7N7)); assay: ELISA, recombinant HA
[11] = target: HA of A/California/07/2004 (H3) (Influenza A virus A/California/07/2004 (H3)); assay: ELISA, recombinant HA
[12] = target: HA of A/turkey/Ontario/6118/1967 (H8) (Influenza A virus A/turkey/Ontario/6118/1967 (H8)); assay: ELISA, recombinant HA
[13] = target: HA of A/mallard duck/Astrakhan/263/1982 (H14N5) (influenza A virus (H14N5)); assay: ELISA, recombinant HA
[14] = target: HA of A/Shanghai/2/2013 (H7N9) (influenza A virus (H7N9)); assay: ELISA, recombinant HA
[15] = target: HA of A/chicken/Germany/N/1948 (H10N7) (influenza A virus (H10N7)); assay: ELISA, recombinant HA
[16] = target: HA of A/Hong Kong/1073/99 (H9) (influenza A virus (H9)); assay: ELISA, recombinant HA
[17] = target: HA of A/duck/Memphis/546/1974 (H11) (Influenza A virus A/duck/Memphis/546/1974 (H11)); assay: ELISA, recombinant HA
[18] = target: dimeric recombinant soluble FcγRIIIa (CD16a), V176 (UniProt P08637)
[19] = target: HA of A/Netherlands/219/2003 (H7N7) (influenza A virus (H7N7)); assay: ELISA, recombinant HA; remark: listed apart in the source
[20] = target: HA of A/shearwater/Western Australia/2576/1979 (H15N9) (influenza A virus (H15N9)); assay: ELISA, recombinant HA; remark: listed apart in the source
[21] = target: HA of A/Taiwan/2/2013 (H6) (Influenza A virus A/Taiwan/2/2013 (H6)); assay: ELISA, recombinant HA; remark: listed apart in the source
[22] = target: HA of A/chicken/Germany/N/1948 (H10N7) (influenza A virus (H10N7)); assay: ELISA, recombinant HA; remark: listed apart in the source
[23] = target: HA of A/Fort Monthouth/1947 (H1N1) (influenza A virus (H1N1)); assay: ELISA, recombinant HA; remark: listed apart in the source
[24] = target: HA of A/Texas/36/1991 (H1N1) (influenza A virus (H1N1)); assay: ELISA
[25] = target: HA of A/Solomon Islands/03/2006 (H1N1) (influenza A virus (H1N1)); assay: ELISA
[26] = target: HA of A/Texas/50/2012 (H3N2) (influenza A virus (H3N2)); assay: ELISA
[27] = target: HA of A/black-headed gull/Sweden/4/1999 (H16) (influenza A virus (H16)); assay: ELISA
[28] = target: HA of A/gull/Maryland/704/1977 (H13) (influenza A virus (H13)); assay: ELISA
[29] = target: HA of A/Minnesota/11/10 (H3) (influenza A virus (H3)); assay: ELISA
[30] = target: HA of A/Switzerland/9715293/2013 (H3) (influenza A virus (H3)); assay: ELISA
[31] = target: HA of A/mallard duck/Astrakhan/263/1982 (H14N5) (influenza A virus (H14N5)); assay: ELISA
[32] = target: HA of A/Vietnam/1203/2004 (H5N1) (influenza A virus (H5N1)); assay: ELISA
[33] = target: HA of A/Indonesia/5/2005 (H5N1) (influenza A virus (H5N1)); assay: ELISA
[34] = target: HA of A/Shanghai/2/2013 (H7N9) (influenza A virus (H7N9)); assay: ELISA
[35] = target: HA of A/Hong Kong/1073/99 (H9) (influenza A virus (H9)); assay: ELISA
[36] = target: HA of A/New York/107/2003 (H7N2) (influenza A virus (H7N2)); assay: ELISA
[37] = target: HA of A/Texas/36/1991 (H1N1) (influenza A virus (H1N1)); assay: ELISA; remark: listed apart in the source
[38] = target: HA of A/Solomon Islands/03/2006 (H1N1) (influenza A virus (H1N1)); assay: ELISA; remark: listed apart in the source
[39] = target: HA of A/Texas/50/2012 (H3N2) (influenza A virus (H3N2)); assay: ELISA; remark: listed apart in the source
[40] = target: HA of A/Netherlands/219/2003 (H7N7) (influenza A virus (H7N7)); assay: ELISA
[41] = target: HA of A/shearwater/Western Australia/2576/1979 (H15N9) (influenza A virus (H15N9)); assay: ELISA
[42] = target: HA of A/Switzerland/9715293/2013 (H3) (influenza A virus (H3)); assay: ELISA; remark: listed apart in the source
[43] = target: HA of A/mallard duck/Astrakhan/263/1982 (H14N5) (influenza A virus (H14N5)); assay: ELISA; remark: listed apart in the source
[44] = target: HA of A/Indonesia/5/2005 (H5N1) (influenza A virus (H5N1)); assay: ELISA; remark: listed apart in the source
[45] = target: HA of A/Shanghai/2/2013 (H7N9) (influenza A virus (H7N9)); assay: ELISA; remark: listed apart in the source
[46] = target: HA of A/Hong Kong/1073/99 (H9) (influenza A virus (H9)); assay: ELISA; remark: listed apart in the source
[47] = target: dimeric recombinant soluble FcγRIIIa (CD16a), V176 (UniProt P08637); remark: listed apart in the source
[48] = target: HA of A/Solomon Islands/03/2006 (H1N1) (influenza A virus (H1N1)); assay: BLI, Fab on immobilized biotinylated HA
[49] = target: HA of A/Vietnam/1203/2004 (H5N1) (influenza A virus (H5N1)); assay: BLI, Fab on immobilized biotinylated HA
[50] = target: HA of A/Indonesia/5/2005 (H5N1) (influenza A virus (H5N1)); assay: BLI, Fab on immobilized biotinylated HA
[51] = target: HA of A/Victoria/361/2011 (H3N2) (influenza A virus (H3N2)); assay: BLI, Fab on immobilized biotinylated HA
[52] = target: HA of A/Texas/36/1991 (H1N1) (influenza A virus (H1N1)); assay: ELISA, recombinant HA; remark: listed apart in the source
[53] = target: HA of A/Solomon Islands/03/2006 (H1N1) (influenza A virus (H1N1)); assay: ELISA, recombinant HA; remark: listed apart in the source
[54] = target: HA of A/Texas/50/2012 (H3N2) (influenza A virus (H3N2)); assay: ELISA, recombinant HA; remark: listed apart in the source
[55] = target: HA of A/Switzerland/9715293/2013 (H3) (influenza A virus (H3)); assay: ELISA, recombinant HA
[56] = target: HA of A/mallard duck/Astrakhan/263/1982 (H14N5) (influenza A virus (H14N5)); assay: ELISA, recombinant HA; remark: listed apart in the source
[57] = target: HA of A/Indonesia/5/2005 (H5N1) (influenza A virus (H5N1)); assay: ELISA, recombinant HA; remark: listed apart in the source
[58] = target: HA of A/Shanghai/2/2013 (H7N9) (influenza A virus (H7N9)); assay: ELISA, recombinant HA; remark: listed apart in the source
[59] = target: HA of A/Hong Kong/1073/99 (H9) (influenza A virus (H9)); assay: ELISA, recombinant HA; remark: listed apart in the source

Chain of dimeric recombinant soluble FcγRIIIa (CD16a), V176 (P08637 17-208 F176V limits assumed): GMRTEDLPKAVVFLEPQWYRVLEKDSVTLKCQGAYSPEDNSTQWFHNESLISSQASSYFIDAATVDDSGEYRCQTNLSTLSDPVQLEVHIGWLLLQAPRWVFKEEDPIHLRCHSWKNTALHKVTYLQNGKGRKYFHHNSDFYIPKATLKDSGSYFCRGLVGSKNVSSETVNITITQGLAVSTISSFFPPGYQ

CR6261 (antibody)
EC50 [1]: 0.025 µg/mL | EC50 [2]: 0.013 µg/mL | EC50 [3]: 0.245 µg/mL | EC50 [4]: 0.061 µg/mL | EC50 [5]: 0.048 µg/mL | EC50 [6]: 0.031 µg/mL | EC50 [7]: 0.026 µg/mL | EC50 [8]: 43 ng/mL

FluA-20 (hybridoma-produced IgG) (antibody)
EC50 [1]: 0.009 µg/mL | EC50 [2]: 0.008 µg/mL | EC50 [9]: 6 ng/mL | EC50 [10]: 6 ng/mL | EC50 [11]: 8 ng/mL | EC50 [4]: 0.007 µg/mL | EC50 [12]: 5 ng/mL | EC50 [13]: 7 ng/mL | EC50 [5]: 0.061 µg/mL | EC50 [6]: 0.142 µg/mL | EC50 [7]: 0.016 µg/mL | EC50 [14]: 0.012 µg/mL | EC50 [15]: 0.037 µg/mL | EC50 [16]: 7 ng/mL | EC50 [17]: 0.072 µg/mL | EC50 [8]: 7 ng/mL | EC50 (read off the curve) [18]: 0.3 µg/mL | EC50 [19]: 0.029 µg/mL | EC50 [20]: 0.015 µg/mL | EC50 [21]: 0.147 µg/mL | EC50 [22]: 0.031 µg/mL | EC50 [23]: 0.012 µg/mL | EC50 [24]: 4 ng/mL | EC50 [25]: 5 ng/mL | EC50 [26]: 4 ng/mL | EC50 [27]: > 10 µg/mL | EC50 [28]: 0.07 µg/mL | EC50 [29]: > 10 µg/mL | EC50 [30]: 0.019 µg/mL | EC50 [31]: 0.013 µg/mL | EC50 [32]: 0.283 µg/mL | EC50 [33]: 0.085 µg/mL | EC50 [34]: 0.066 µg/mL | EC50 [35]: 9 ng/mL | EC50 [36]: 0.808 µg/mL | EC50 [37]: 0.05 µg/mL | EC50 [38]: 0.05 µg/mL | EC50 [39]: 0.09 µg/mL | EC50 [40]: 0.05 µg/mL | EC50 [41]: 0.08 µg/mL | EC50 [42]: 0.55 µg/mL | EC50 [43]: 0.95 µg/mL | EC50 [44]: 6.05 µg/mL | EC50 [45]: 0.12 µg/mL | EC50 [46]: 0.41 µg/mL | EC50 (read off the curve) [47]: 0.3 µg/mL

FluA-20 Fab
Kd [48]: 2 nM | Kd [49]: 122 nM | Kd [50]: 88 nM | Kd [51]: 15 nM

rFluA-20 (recombinant FluA-20 IgG) (antibody)
EC50 [11]: 9 ng/mL | EC50 [12]: 5 ng/mL | EC50 [5]: 0.063 µg/mL | EC50 [6]: 0.133 µg/mL | EC50 [15]: 0.041 µg/mL | EC50 [17]: 0.076 µg/mL | EC50 [8]: 7 ng/mL | EC50 [52]: 0.046 µg/mL | EC50 [53]: 0.047 µg/mL | EC50 [54]: 0.086 µg/mL | EC50 [19]: 0.054 µg/mL | EC50 [20]: 0.136 µg/mL | EC50 [55]: 0.548 µg/mL | EC50 [56]: 0.071 µg/mL | EC50 [21]: 0.229 µg/mL | EC50 [57]: 6.05 µg/mL | EC50 [58]: 0.117 µg/mL | EC50 [22]: 0.129 µg/mL | EC50 [59]: 0.407 µg/mL | EC50 [23]: 0.02 µg/mL | EC50 [37]: 0.008 µg/mL | EC50 [38]: 0.008 µg/mL | EC50 [39]: 0.007 µg/mL | EC50 [40]: 0.005 µg/mL | EC50 [41]: 0.007 µg/mL | EC50 [43]: 0.007 µg/mL | EC50 [44]: 0.016 µg/mL | EC50 [45]: 0.013 µg/mL | EC50 [46]: 0.007 µg/mL
